The experiment deals with rKv4.3. Nature of the experiment: Two-electrode voltage clamp of Kv4.3 currents in Xenopus oocytes co-injected with KChIP cRNA. It is filed as cell-based, rat. As to conditions: for fold increase of inactivation time constant of Kv4.3: versus Kv4.3 alone; for effect on Kv4.3 current: co-injected with Kv4.3 cRNA. The protocol: Frogs underwent no more than two surgeries and surgeries were performed by well established techniques. Frogs were anesthetized with ice. Total cRNA (1-10 ng) was injected into stage IV Xenopus oocytes that were harvested the previous day. The Xenopus oocytes were incubated in ND96 containing (in mM) 96 NaCl, 2 KCl, 1.8 CaCl2, 1 MgCl2, 5 HEPES, pH 7.6, plus (Gentamycin 50 μg/ml) at 18° C. Xenopus oocytes were studied 3-7 days after injection. The two-electrode voltage-clamp recordings were performed in ND96 solution using a TURBO TEC 03 Clamp Amplifier (ALA Scientific Instruments, Westbury, N.Y.). Both electrodes were filled with 3 M KCl and had electrode resistances ranging from 0.2-1 MOhm. The current signals were filtered at 1000 Hz before transferred on a PC (Gateway, Calif.) using the PULSE software (HEKA, Germany).
Chain of rKv4.3 (Q62897 1-487 limits assumed): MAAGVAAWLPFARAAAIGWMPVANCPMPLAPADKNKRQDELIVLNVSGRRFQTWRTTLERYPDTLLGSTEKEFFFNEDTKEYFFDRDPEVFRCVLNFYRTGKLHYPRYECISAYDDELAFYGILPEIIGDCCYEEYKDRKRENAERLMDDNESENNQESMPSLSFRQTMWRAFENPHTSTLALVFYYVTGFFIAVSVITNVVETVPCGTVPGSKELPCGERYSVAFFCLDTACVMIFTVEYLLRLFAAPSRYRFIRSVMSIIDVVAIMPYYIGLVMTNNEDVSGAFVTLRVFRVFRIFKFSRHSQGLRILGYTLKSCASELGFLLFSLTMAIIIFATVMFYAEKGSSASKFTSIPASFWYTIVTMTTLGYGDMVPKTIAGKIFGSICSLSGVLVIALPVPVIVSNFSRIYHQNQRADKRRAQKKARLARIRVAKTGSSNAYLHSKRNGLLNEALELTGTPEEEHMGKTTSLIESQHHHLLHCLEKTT
To investigate whether the modulatory effects of these KChIPs are specific for Kv4 channels, KChIP1 was coexpressed with Kv1.4 and Kv2.1 in Xenopus oocytes. Xenopus oocytes were injected with 1-3 ng/oocyte of cRNA which was prepared using standard in vitro transcription techniques (Sambrook et al. 1989. Molecular Cloning: a laboratory manual, Cold Spring Harbor Press). Currents in Xenopus oocytes were measured with a two-electrode voltage clamp. […] As a final control for the KChIP effects and to verify that the KChIPs' effects on Kv4 currents are independent of expression system, the above kinetic analyses were repeated after expressing Kv4.3 and KChIP mRNAs in Xenopus oocytes. The effects KChIP1 on for Kv4.3 in the Xenopus oocyte system were strikingly similar to those on Kv4.2 in CHO cells (Table 1).

The mark [1] stands for this setting: Kv4.3 co-expressed with the KChIP.

B1: KChIP1l: KChIP1long splice variant of KChIP1 (protein)
chain: MGAVMGTFSSLQTKQRRPSKDIAWWYYQYQRDKIEDELEMTMVCHRPEGLEQLEAQTNFTKRELQVLYRGFKNECPSGVVNEDTFKQIYAQFFPHGDASTYAHYLFNAFDTTQTGSVKFEDFVTALSILLRGTVHEKLRWTFNLYDINKDGYINKEEMMDIVKAIYDMMGKYTYPVLKEDTPRQHVDVFFQKMDKNKDGIVTLDEFLESCQEDDNIMRSLQLFQNVM
Consider B1, for which the “fold increase of inactivation time constant of Kv4.3” value is given as roughly 2 fold. In addition, under setting [1], the “Inactivation time constant (ms ± SEM)” value stood at 100 ± 8 ms and the “Peak amplitude (μA ± SEM)” value is listed as 55±7 μA.

B2: KChIP1N: N-terminal splice variant of KChIP1 (protein)
chain: MWAEGESEGLQTLGIVVVVCSSLKLLHYLGLIDLSDDKIEDELEMTMVCHRPEGLEQLEAQTNFTKRELQVLYRGFKNECPSGVVNEDTFKQIYAQFFPHGDASTYAHYLFNAFDTTQTGSVKFEDFVTALSILLRGTVHEKLRWTFNLYDINKDGYINKEEMMDIVKAIYDMMGKYTYPVLKEDTPRQHVDVFFQKMDKNKDGIVTLDEFLESCQEDDNIMRSLQLFQNVM
As for B2, the “effect on Kv4.3 current” value was “did not affect peak amplitude of Kv4.3” and the “fold increase of inactivation time constant of Kv4.3” value turned out to be 32 fold. Further, under setting [1], the “Inactivation time constant (ms ± SEM)” value is 1778 ± 136 ms and the “Peak amplitude (μA ± SEM)” value is on record as 18±3 μA.

B3: KChIP4N3: KChIP4 splice variant KChIP4d (protein)
chain: MNVRRVESISAQLEEASSTGGFLYAQNSTKRSIKERLMKLLPCSAAKTSSPAIQNSVEDELEMATVRHRPEALELLEAQSKFTKKELQILYRGFKNECPSGVVNEETFKEIYSQFFPQGDSTTYAHFLFNAFDTDHNGAVSFEDFIKGLSILLRGTVQEKLNWAFNLYDINKDGYITKEEMLDIMKAIYDMMGKCTYPVLKEDAPRQHVETFFQKMDKNKDGVVTIDEFIESCQKDENIMRSMQLFENVI
In the case of B3, the “effect on Kv4.3 current” value is listed as “increased the peak amplitude of Kv4.3”. Under setting [1], the “Inactivation time constant (ms ± SEM)” value was 85 ± 4 ms and the “Peak amplitude (μA ± SEM)” value is 43 ± 4 μA.

B4: KChIP4N2: N-terminal splice variant of KChIP4 (protein)
chain: MNLEGLEMIAVLIVIVLFVKLLEQFGLIEAGLEDSVEDELEMATVRHRPEALELLEAQSKFTKKELQILYRGFKNECPSGVVNEETFKEIYSQFFPQGDSTTYAHFLFNAFDTDHNGAVSFEDFIKGLSILLRGTVQEKLNWAFNLYDINKDGYITKEEMLDIMKAIYDMMGKCTYPVLKEDAPRQHVETFFQKMDKNKDGVVTIDEFIESCQKDENIMRSMQLFENVI
For B4, the “Peak amplitude (μA ± SEM)” value by setting is: (KChIP4N2 cRNA 1× (stock)) 0 ± 0 μA; (KChIP4N2 cRNA diluted 5×) 4 ± 1 μA; (KChIP4N2 cRNA diluted 30×) 25 ± 2 μA; (KChIP4N2 cRNA diluted 120×) 16 ± 3 μA; (KChIP4N2 cRNA diluted 500×) 9 ± 4 μA. For the same molecule, the “Inactivation time constant (ms ± SEM)” value came to 681 ± 28 ms (KChIP4N2 cRNA diluted 30×), 193 ± 13 ms (KChIP4N2 cRNA diluted 120×) and 84 ± 5 ms (KChIP4N2 cRNA diluted 500×). Also, the “effect on inactivation kinetics of Kv4.3” value (high concentrations of KChIP4N2 (e.g. 5× dilution of stock)) was “converted the fast-inactivating Kv4.3 current into an almost non-inactivating current”.

B5: KChIP4N1: KChIP4 splice variant KChIP4a (protein)
chain: MLTLEWESEGLQTVGIVVIICASLKLLHLLGLIDFSEDSVEDELEMATVRHRPEALELLEAQSKFTKKELQILYRGFKNECPSGVVNEETFKEIYSQFFPQGDSTTYAHFLFNAFDTDHNGAVSFEDFIKGLSILLRGTVQEKLNWAFNLYDINKDGYITKEEMLDIMKAIYDMMGKCTYPVLKEDAPRQHVETFFQKMDKNKDGVVTIDEFIESCQKDENIMRSMQLFENVI
For the molecule B5, the “effect on Kv4.3 current” value is “statistically had no significant (ns) effect on Kv4.3 amplitude”. Under setting [1], the “Inactivation time constant (ms ± SEM)” value is 112 ± 7 ms and the “Peak amplitude (μA ± SEM)” value came to 6 ± 1 μA.
